The target of this test is Recombinant full-length Pin1, N-terminally His6-tagged (human) (UniProt Q13526). Put plainly: SDS-PAGE and western blot; fractions eluted from the HisTrapHP column with imidazole, 15% SDS-PAGE, HRP conjugated anti-His antibody; second band seen in the more concentrated fractions.

As usually defined, the stoichiometry N is the number of molecules, sites or subunits per partner or assembly. On to “Recombinant full-length Pin1, N-terminally His6-tagged (from UniProt Q13526 1-163) (enzyme)”, for which the stoichiometry N is 2.

The values above are taken from publication PMC9935730.
